# Assay: soluble on expression in E. coli; label from the status in PepcDB or PDB records
row,Sequence,soluble on expression in E. coli
1,MSLYKGYLIDLDGTIYKGKDRIPAGETFVHELQKRDIPYLFVTNNTTRTPESVKEMLAQNFNIDTPLSTVYTATLATIDYMNDLGLEKTVYVVGEAGLKEAIKAAGYVEDKEKPAYVVVGLDWQVDYEKFATATLAIQKGAHFIGTNPDLNIPTERGLLPGAGSLITLLEVATRVKPVYIGKPNAIIMDKAVEHLGLEREELIMVGDNYLTDIRAGIDNGIPTLLVTTGFTKAEEVAGLPIAPTHVVSSLAEWDFDENEGHHHHHH,soluble
2,MSLYKIDFSKGLVPAILQDNQTKQVLMLGYMNQEAFDKTIEDGVVCFYSRSKQRLWTKGETSGHTQLVKDIHVDCDNDTILIDVIPNGPTCHTGSQSCFNTEVPFSVQTLAQTVQDSAQSNNEKSYTKYLLTEGIEKITKKYGEEAFEVVIEAIKGDKKAFVSEVADELYHLFVLMHALGVDFSEIEAELARRHHKRNNFKGERQNIEQWEGHHHHHH,soluble
3,MSLYKKYLLLGVSLCMLNACNESKSVSLEGSLDGIQADSIYLYQVDNEHYGSVKLIKSIAVTDGRFAYPTDSIQAGLYCFSLQNMERGEYLQQYANLFLEPKSMQLTLGKDKYDQLSLHATGSALQEQYEALQEAKYVAGNRMVLDSLDHMFYEAREKGDREEMERIREVSSPYYESASEQTRKLINGEIAKNKGSYFGLYLYYTYRFQNHTFNTVEEIDEARNFIGSFDEASRRSGIYVKMQEGLDKFARCATGSVAPAITGIDLKGNSVSLNDFKGKYVLVDFWFAGCSWCRKETPYLLKTYNAFKDKGFTIYGVSTDRREEDWKKAIEEDKSYWNQVLLQKDDVKDVLESYCIVGFPHIILVDPEGKIVAKELRGDDLYNTVEKFVNGAKEGHHHHHH,soluble
4,MSLYKLIALDMDGTLLNSQKQISPRTKQAIAQARQQGIQVVLASGRPLDGMRSKLEELHLTTENDYVLYYNGSMVANVGTGEIIHQQIIDGKAAKRVATLAQEFGLNTHAFSQIHGLITPKTSQYTEVEASINGLNITEMDFAQLADDHPIIKAMIVGEPEKLTQAIAQLPAQWREEFTVVQSAPFFLEFLNTGSNKGIGVQAIAAHLGIQASEVICMGDAENDHHMLQYAGLGIAMANAMEETKHIADHITLSNDHDGVAVAIERFALGCFSEGHHHHHH,soluble
5,MSLYPGQFAKTRPDHPAFIMASTGETVSYAELEARSNRLAHLLRNHGLQRLDHYSIFMENNNRYIEACAAGERSGYYYTCVNSYLTPAELAYILTNSESRALITSKAKLDVAREALKDCPNVTLCVVVDGDGESERIVGLAEATKNLPDTPIADESLGTAMLYSSGTTGRPKGILRPLPEQPPSEPLPLFHFLNMLWKYRDGMIYLSPAPLYHSAPQAAVGLTIRDGGTVIIMEHFDPEQYLALIGKHKVTHSQLVPTMFSRMLKLPEEARKTYDLSTLEVAIHAAAPCPPQVKEQMIEWWGPIIHEYYGATEGLGFTACNSAEWLAHRGTVGKVMFGDLHILDDGMKPCPKGTPGQIWFKTATPFEYFNDPKKTQEARSEDGSMSTVGDVGYVDDDGYLHLTDRATFMIISGGVNIYPQECENLLITHPKVADAAVFGVPNEDLGEEVKAVVQPMPGVAAGADLAAELIAFCAQSLSRQKVPRSIDFMDELPRLPTGKLYKRLLRDRYWGNKNSREGHHHHHH,soluble
6,MSLYQAIVFFDLDSTLFDDNKHVLPASVAAIHEMQQHHILPVIATGRNIFEIQYVLDGTGIDSVVGANGSYVQYQGQRLAAAVIAPELLTAVTSFAQRQHDPIAYYTSQGFRLSQANADTTENFQLLRLHPIVDPAWYATHQINFLNVFNRDHDQLYQEKFSGQLTFVRNNPRCLDTMVNGVTKQSGIRTLIQQAGLQGIKTYAFGDGYNDLQMFDEVDVPISMGNGVAAAKEKAAYVTTTNTTDGIVRGLRHFGLIQEGHHHHHH,soluble
7,MSLYSNESAIQLISLARSIDQLQKIDSVVSFHDGAQLDALTIANALELPFSLSMGAIVNTRDKQLSRRILREKNLTEVQSAIAENEQDLHDFFKIYPQVNKVIVKPVAGTGSENVRSLESKELETANLDNVYPVLVEQFVEGREFSVEAFMQEGKCHIFAITEKFKDAQSFIETGHLVPARLSSDEHEKIAAFIAKVLPALGVVSGITHSEIMLGEKIELIETHTRVGGDRIFDLVQMTTGIDMYRLQALQSLGLPIGEDELTPKLNGKHACIKFKLNDHPGKKVIRVNGEEEIKNWSGVEDVSITHQAGEVLPQIVNSFDRSASVLVLCDSSEQALSIAEEAIQKLEFVVGEGHHHHHH,not soluble
8,MSMLKIGDIVTRKSHGQDIYFIVTDIQNKDSSKPVYILRGLFYRIIVDAFEDDLVKKDSRSTRINLRRDLTMARSNAYRQIFTSRCFLFSKPRQRPGKVLHIDSSESFLKMCRNLYKEAGITSREYLAPESEQPNIIKRALAETKPDILVVTGHDSLKKGSDPNLLDSYRNSKYFIECVKEARKYQPDYDKLCIFAGACQSYFEAIMQAGANFASSPGRININALDPAIVSEKVALTNKDNYVTPEEVSKLTISGSKGIGGIKTRGHLTVL,soluble
9,MSNDIEKSIQQWLEKKLEERGHGAQIELAAYLGIHPSTISRMLNPYKNGKSRSISIGELVKIAEFFKVSPPQISSLMLIKNS,not soluble
10,MSNFMVENQTEQVSIFLEDAINLITNYVNYHTLPSLLEETPAGNERYYKGLLASMRRLLVFCEEGQDACFVLLNSQPFRKTAAEKILYKIYHQVIAEFFSPKSDHWYENSRSAYTGKNSIVFQQTPPASLEQVMKSLEGKFQLMREELEYYETDYQTKMLHKY,not soluble
11,MSNIITDYSQYNEKQLHNFLNSIEKQLLKAERDKNKAIKKIQECELQERMIRQVLAQKHSQEKEPTPSLLNTIASKDDPEYDVSFGDFNDFLQIAKQERERHNA,not soluble
12,MSNKIVTLEINLEPSDNRRLASLCGPFDDNIKHLERRLGVEINHRSDHFTIVGKPHTSAAALDILKTLYVDTAPVRGEIPDIEPEQIHLAIKESGVLEQNTESSIAHGKEVFVKTKKGVIKPRTPNQAQYLVNMVTHDISFGIGPAGTGKTYLAVAAAVDALERQEIRRILLTRPAVEAGEKLGFLPGDLSQKVDPYLRPLYDALFEMLGFERVEKLIERNVIEVAPLAYMRGRTLNDAFIILDESQNTTVEQMKMFLTRIGFNSRAVITGDVTQIDLPRGAKSGLRHAIEVLSEVDDISFNFFQADDVVRHPVVARIVNAYEKWEAQDQKERKEFEKRRREERDAKLLEAAKAELSAQVAATKE,not soluble
13,MSNPYPKQEVTLMLHTANPVIKHKAGLLNLAEELSNVSKACKIMGVSRDTFYRYRELVAEGGVDAQINRSRRAPNLKNRTDEATEQAVVDYAVAFPTHGQHRASNELRKQGVFISDSGVRSVWLLHNLENLKRRYLEHHHHHH,not soluble
14,MSNQLFDAYFTAPAMREIFSDRGRLQGMLDFEAALARAEASAGLVPHSAVAAIEAACQAERYDTGALANAIATAGNSAIPLVKALGKVIATGVPEAERYVHLGATSQDAMDTGLVLQLRDALDLIEADLGKLADTLSQQALKHADTPLVGRTWLQHATPVTLGMKLAGVLGALTRHRQRLQELRPRLLVLQFGGASGSLAALGSKAMPVAEALAEQLKLTLPEQPWHTQRDRLVEFASVLGLVAGSLGKFGRDISLLMQTEAGEVFEPSAPGKGGSSTMPHKRNPVGAAVLIGAATRVPGLLSTLFAAMPQEHERSLGLWHAEWETLPDICCLVSGALRQAQVIAEGMEVDAARMRRNLDLTQGLVLAEAVSIVLAQRLGRDRAHHLLEQCCQRAVAEQRHLRAVLGDEPQVSAELSGEELDRLLDPAHYLGQARVWVARAVSEHQRFTA,soluble
15,MSNQSKLNSAAYDQLNKDADRILHLIKVQMDNLTLPSCPLYEEVLDTQMFGLQKEVDFAVQLGLVDKEDGKQLMLRLEKELSKLHEAFTNV,not soluble
16,MSNRFKFFAAIREYNPEGEVFLRIIGTGSNNNLTYRIMESRLNEVGISLGSFLSAVVPMGEPIRDFVPEERNFKVIIDGIVAMVENIEGNLEKNEEGVLVFSTEDFGLVRALDQKLSPGQYQITVRATKFSERKIFKNMNYCAEAQKIAPLVTATESESIFKRVASFFQKSPEENSLESTSKQANEEKDSSVQDLSMAELIEILPNLDQKSINQPTPAPRSMVGSVGITRTMNALVCDVIHQEKECIHFLWICEIQQISMFASKSHYLSPGKFFEGLFEKKETNWECIRFVGEKKELLKGITDGDKFKVTLTNEQGFPVFTVENLYAKLIAFEGKFVFHNKTFGNAIIGCYRPPGDYKITIKLLPIPFTTPTGKFICFEAIHFESADVLSSSNTNTTENKKKVTEKVKERGIRRPQDPKSKGIQRAVVIRVIEKGNSTDYIVWNLDSKMECIFRSAKHELERGHFFSGKFVKKSDGSLMCTNYVKQIKGFVEGGLDEHENIYFTVPIQNFQAARGNRKYNCAFSEYFGEVLEGKAENTKLSSNCNGKTVNIEWKKIGASGSDEYVWIVSKIF,not soluble
17,MSNTVTLRADGRLFTGWTSVSVTRSIESVAGYFELGVNVPPGTDLSGLAPGKKFTLEIGGQIVCTGYIDSRRRQMTADSMKITVAGRDKTADLIDCAAVYSGGQWKNRTLEQIARDLCAPYGVTVRWELSDKESSAAFPGFTLDHSETVYEALVRASRARGVLMTSNAAGELVFSRAASTATDELVLGENLLTLDFEEDFRDRFSEYTVKGYARANGAEGDDIDAKSIVSRKGTATDSDVTRYRPMIIIADSKITAKDAQARALREQRRRLAKSITFEAEIDGWTRKDGQLWMPNLLVTIDASKYAIKTTELLVSKVTLILNDQDGLKTRVSLAPREGFLVPVESDRKNRKGGDSNGGIDALVEDYYRRHPEKTPPWKE,soluble
18,MSNVTPKLVWPEDDYVDESLLEDHQGPARLEYDALVMLANLPPLTEEIMSRCPALPVKTRSTPEYTLVLDLDETLVHCSLTPLDNATMVFPVVFQNITYQVYVRLRPHLRTFLSRMAKTFEIIIFTASKKVYANKLCDILDPRKNHIRHRLFREHCVCVFGNYVKDLTILGRDPSKTMILDNAVQSFAYQLDNGIPIESWFHDRNDTELLKLCSFLEAIPTLGRDVREILRHKYRLRDHIPFYSIIHQQEGPGRLPLLEVAPPPVTEPNDEQLITQVVQKHPQLVQG,soluble
19,MSPESSNQTTSLSSFLLKCAFPDGTVPINIAPQSLSLSSSPGSYDGDQFSPLMKQHKSRKYDSCTISDDLHDEMKRLKKKEEAFKTALCGFQRRGQKCIYGEQCKFAHSVHELRFTQAKKTHRNYKTVLCDKFSTTGYCKYGARCQFIHRALGSTSTTESAEMADFKLNVESDLSRAFALDYTSFLPNWHCSALLH,not soluble
20,MSQAFAQPLSGYQIGDEIKNFSMLNVTNQTVLSLTDYNDQKVVVIIFTNNNCAYAKLYEQRIANLAKQYNTSGVAFLLVNPSVSNSDKFETIEAMRKKIQNDKSLYPYLADTTQSLAISFGVQRLPDAFVLKKMETSFRLVYKGSIDDNPQSAEDVSNRFLSDAISAMVLNRSIKVADTRAVGCLLKPY,not soluble
21,MSQARPATVLGAMEMGRRMDVTSSSASVRAFLQRGHTEIDTAFVYANGQSETILGDLGLGLGRSGCKVKIATKAAPMFGKTLKPADVRFQLETSLKRLQCPRVDLFYLHFPDHGTPIEETLQACHQLHQEGKFVELGLSNYVSWEVAEICTLCKKNGWIMPTVYQGMYNAITRQVETELFPCLRHFGLRFYAFNPLAGGLLTGRYKYQDKDGKNPESRFFGNPFSQLYMDRDWKEEHFNGIALVEKALKTTYGPTAPSMISAAVRWMYHHSQLKGTQGDAVILGMSSLEQLEQNLALVEEGPLEPAVVDAFDQAWNLVAHECPNYFR,soluble

# Source: the DeepSol protein solubility set
